± gives the standard deviation of the averaged measurements.
The sequences below were run on Saccharomyces cerevisiae (assay: protein stability index of tFT-peptide fusion (C-terminal peptide) (PSI (0-1 scale)); higher = more stable (slower turnover)). Details: genetic background: wild type; temperature: 30 C.
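Further: PSI is a weighted mean of sequencing reads over stability bins, variants kept only with over 10 reads, mCherry proximal and sfGFP distal, peptide attached via GGGS linker.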

Sequence	protein stability index
SLILRHLSPPTP	0.762 ± 0.15
SLIPLRLTLTRH	0.739 ± 0.023
SLKRRWPYPNRP	0.681 ± 0.011
SLLLMLPFPLPG	0.618 ± 0.028
SLLLPPRPPSPS	0.672 ± 0.017
SLLLPTPPPFRP	0.644 ± 0.028
SLLLSRPLSTSH	0.6945 ± 0.0031
SLLTSSPLPSPP	0.696 ± 0.043
SLPAFPPNTFMP	0.7 ± 0.017
SLPGVRVPRVGR	0.715 ± 0.059
SLPHSFIYYPLP	0.755 ± 0.037
SLPLPSPRPILR	0.64 ± 0.0092
SLPLVLHGHRLY	0.672 ± 0.027
SLPPAHPPPPRP	0.693 ± 0.026
SLPPFPVTSRHP	0.691 ± 0.011
SLPPSSPLPPVS	0.665 ± 0.035
SLPRPPPPASTP	0.623 ± 0.0068
SLPSPSPPSHPL	0.705 ± 0.033
SLPSSVAFLFPR	0.802 ± 0.17
SLQTRANTGLWT	0.689 ± 0.034
SLREIIRKSLGL	0.677 ± 0.022
SLRILFDLRISL	0.605 ± 0.031
SLRLFSPILSSL	0.684 ± 0.011
SLRSSLFSPHHC	0.649 ± 0.044
SLRSSRSRIKKG	0.624 ± 0.086
SLRWVHVRGVLQ	0.702 ± 0.013

Sequence	protein stability index
SLSDYKAYSKTI	0.65 ± 0.013
SLSGPDIRLKPF	0.673 ± 0.046
SLSGPRCFLHSP	0.681 ± 0.039
SLVLPPRPFPPF	0.746 ± 0.058
SLVLPSFSLFSR	0.728 ± 0.028
SLVLSFPLLSLP	0.697 ± 0.025
SLYPPPAPRASP	0.773 ± 0.036
SLYVRRCKEASK	0.6894 ± 0.0023
SMSRSPPPSPPL	0.669 ± 0.01
SMWKQIRVYGLW	0.636 ± 0.028
SNHIAPAFKIKQ	0.678 ± 0.0085
SNHTIIGNVVHF	0.7131 ± 0.0056
SNHYYFILSHFA	0.661 ± 0.0093
SNPLRPHLPPHF	0.714 ± 0.054
SNTKLIGGFFRD	0.646 ± 0.1
SPALSPDPSPSP	0.704 ± 0.037
SPALVRLSLPRP	0.86 ± 0.14
SPAPPPGVPPSR	0.687 ± 0.03
SPDCSLSPSVSG	0.684 ± 0.029
SPFCGVRFRFCY	0.632 ± 0.064
SPFGFPPPSPPA	0.6843 ± 0.003
SPFPLSSLRPLP	0.7552 ± 0.0022
SPGPSPPSPIGP	0.61967 ± 0.00044
SPGTFLSLRMSI	0.703 ± 0.015
SPHLPPLPDPSP	0.576 ± 0.0069
SPISATISPSFR	0.728 ± 0.018

Sequence	protein stability index
SPIVLTYHYLCR	0.666 ± 0.0087
SPLGPLGPPSET	0.693 ± 0.052
SPLLYPPPSTSI	0.715 ± 0.042
SPLPLFSPCPPP	0.693 ± 0.014
SPLPPPSLPRPP	0.641 ± 0.017
SPLRHLPGPSFP	0.696 ± 0.012
SPLSLPTRSCLL	0.7075 ± 0.0066
SPLTSSSLPPRT	0.691 ± 0.032
SPPAPACTSYSL	0.7018 ± 0.0019
SPPATPWPPDLR	0.627 ± 0.051
SPPFLPCLFHAS	0.687 ± 0.048
SPPFLPVPASSL	0.709 ± 0.027
SPPGYPGNPSPL	0.662 ± 0.021
SPPHSLSSSCSL	0.811 ± 0.05
SPPLFCSPPISP	0.719 ± 0.043
SPPLHPPPPFPL	0.769 ± 0.047
SPPLPACSPPLA	0.715 ± 0.035
SPPLPHLPTPTP	0.603 ± 0.14
SPPLPPLPSVAF	0.637 ± 0.16
SPPLPPPARLPA	0.615 ± 0.019
SPPLPRLSPLPN	0.6863 ± 0.0012
SPPPAPSHPPSP	0.73 ± 0.05
SPPPGSRTFAFR	0.697 ± 0.042
SPPPIVPPPSPP	0.662 ± 0.12
SPPPLCCPPLAP	0.728 ± 0.023
SPPPLLLPLSPP	0.727 ± 0.047

Sequence	protein stability index
SPPPLNTFPPLP	0.691 ± 0.025
SPPPLRFPPPPP	0.763 ± 0.13
SPPPNPPRPSSR	0.768 ± 0.014
SPPPPASPPAPP	0.648 ± 0.062
SPPPPHVPLSPS	0.712 ± 0.032
SPPPPPALPEYQ	0.6877 ± 0.0012
SPPPPPPPPPPL	0.757 ± 0.041
SPPPPPPRPLTP	0.672 ± 0.027
SPPPPSPRFPSP	0.678 ± 0.017
SPPPPTPLPPPP	0.6757 ± 0.0047
SPPPPVPSAGPL	0.7 ± 0.042
SPPPSPPPPLPP	0.5649 ± 0.0049
SPPRHPPPASPA	0.7128 ± 0.0035
SPPSPSTPPARP	0.747 ± 0.15
SPPSSPHPPPRT	0.693 ± 0.01
SPPVPLPYLASP	0.663 ± 0.061
SPQPSLPFLPPL	0.668 ± 0.026
SPRPHRHLPFRP	0.709 ± 0.0072
SPRPIKCRPLLI	0.62 ± 0.018
SPRPPPLIIAST	0.664 ± 0.031
SPRPPSLPYAPP	0.701 ± 0.019
SPRPTRCGQNSM	0.6897 ± 0.0053
SPRPYFSLVLFF	0.539 ± 0.0032
SPRRSLPPAGFT	0.71 ± 0.017
SPRVRVYLTDTG	0.7306 ± 0.0042
SPSCFFIFALPC	0.605 ± 0.037

Sequence	protein stability index
SPSCSLLCPLPR	0.72 ± 0.028
SPSIRFILWGPI	0.678 ± 0.041
SPSLSPSPPSPS	0.6699 ± 0.0039
SPSPLPTTPPTC	0.641 ± 0.0077
SPSPPHPLTTTL	0.711 ± 0.075
SPSPPLASPPPL	0.686 ± 0.016
SPSRPTPNTIGP	0.615 ± 0.031
SPSSFVTFVVLE	0.652 ± 0.098
SPSSPPPPPPPA	0.833 ± 0.033
SPSTRWPTVQTR	0.662 ± 0.0098
SPTAPPPRPFPP	0.679 ± 0.042
SPTPPRMPLSLP	0.677 ± 0.024
SPTRFLPVPTPF	0.75 ± 0.052
SPTSTILKSYTR	0.659 ± 0.086
SPVPRPGTTRRP	0.721 ± 0.031
SPVQHPKHIQPG	0.656 ± 0.008
SPVRRGRCRLSG	0.728 ± 0.1
SQFGLGCCQRST	0.723 ± 0.069
SQGAGKCIIIAA	0.561 ± 0.015
SQGSTLRGIEEP	0.661 ± 0.048
SRAARLLPKLLI	0.589 ± 0.055
SRAPRDVFSPPM	0.72 ± 0.019
SRASPPCSLLSS	0.696 ± 0.051
SRCRASMPPLRA	0.684 ± 0.034
SRERRPKVFILR	0.669 ± 0.027
SRETRRRENPAK	0.677 ± 0.19

Sequence	protein stability index
SRFAAGSRVLFL	0.758 ± 0.044
SRFSRLHPAFPV	0.759 ± 0.014
SRGLPRLLCPPP	0.747 ± 0.025
SRGLVRGPMSGR	0.661 ± 0.053
SRGRSFFAGVGG	0.722 ± 0.042
SRGVSRGGGEVF	0.651 ± 0.027
SRGWCGRVVWGK	0.729 ± 0.01
SRHFPLGTVHVP	0.756 ± 0.065
SRHRVGLPIQIF	0.526 ± 0.022
SRKIRTTLQESK	0.7219 ± 0.0071
SRLGVGGGLCSW	0.714 ± 0.11
SRLKAPADTDPN	0.7 ± 0.015
SRLSPPFPLFSL	0.505 ± 0.036
SRMRRGCTGCEC	0.671 ± 0.061
SRPPLLLLSSGA	0.6583 ± 0.0059
SRPRLSDLFPPP	0.706 ± 0.11
SRRVSVSTSWNP	0.718 ± 0.014
SRSCCPGVRVRF	0.709 ± 0.03
SRSCRHGELKFA	0.718 ± 0.0097
SRSGASLRAARG	0.722 ± 0.043
SRSGVSTRGVPC	0.709 ± 0.0073
SRSWLPPVFPRV	0.807 ± 0.059
SRTLLRVSHLSL	0.699 ± 0.02
SRVAEIERVQWL	0.655 ± 0.038
SRVQYVLDRSVF	0.649 ± 0.0099
SRVTGPGRADGT	0.691 ± 0.011

Sequence	protein stability index
SRVTVLGGWRRG	0.701 ± 0.034
SRWFEFSFLSQV	0.707 ± 0.049
SRYERLFSDNRG	0.718 ± 0.019
SSALPPLLAFFL	0.6808 ± 0.0046
SSALSLVSSFLP	0.705 ± 0.05
SSASLIPPPPVP	0.693 ± 0.053
SSCRHYRSPINH	0.764 ± 0.069
SSDLSNVQTQRL	0.708 ± 0.065
SSFFTTGAPRPP	0.674 ± 0.061
SSGFVWVGVCVG	0.5 ± 0.0069
SSGRRFVVVVQG	0.572 ± 0.026
SSGSLITIASPF	0.745 ± 0.024
SSHHGSSEDDHQ	0.6597 ± 0.001
SSHHYSCPLVDT	0.667 ± 0.058
SSIHSLRQVISI	0.614 ± 0.051
SSLDTPSFDSSL	0.675 ± 0.018
SSLLSPLRSAFL	0.71 ± 0.066
SSLMGGLSAYPG	0.694 ± 0.011
SSLNLLIHTAPL	0.739 ± 0.023
SSLSFAPAPPFV	0.698 ± 0.035
SSPEYIRNIQRS	0.62 ± 0.029
SSPGFCRVFVFF	0.491 ± 0.018
SSPHRFLCLPPP	0.639 ± 0.061
SSPLPLPLHPPP	0.7146 ± 0.0062
SSPPRSLLSKSF	0.722 ± 0.017
SSPSALSLLLSV	0.6876 ± 0.0049

Sequence	protein stability index
SSPSPSPPHLHP	0.712 ± 0.02
SSQVELPVSVVW	0.649 ± 0.058
SSRGVTRRRLRE	0.724 ± 0.15
SSRPLISTLTPY	0.661 ± 0.014
SSRSMKKKKVKI	0.7034 ± 0.0027
SSRVSLSTVCLL	0.585 ± 0.019
SSSAPLPPSLPL	0.791 ± 0.16
SSSEGNRGSLQY	0.774 ± 0.041
SSSPPPPPPSPS	0.75 ± 0.12
SSTALVFRLICL	0.63 ± 0.016
SSVNRPTSWTKA	0.739 ± 0.024
SSWRVPLSVLPI	0.67 ± 0.014
STELQKMPQIEY	0.722 ± 0.11
STKQTTTTERAI	0.67 ± 0.013
STPDRFVSRGRQ	0.702 ± 0.043
STPPGTPGISRQ	0.723 ± 0.079
STPPLSLRPLLR	0.608 ± 0.055
STPSPLTLPPLP	0.695 ± 0.024
STPSPSPTGLSR	0.597 ± 0.065
STPVKLPTSSLP	0.663 ± 0.051

From the supplement of paper PMC10724198
